Measurements from US10005846 (LIFEARC, dated 2018).

T1: TG3 (human, UniProt Q08188)
T1 construct: recombinant, Zedira; also called recombinant human TG3; Epidermal Transglutaminase
T1 sequence (enzyme, looked up): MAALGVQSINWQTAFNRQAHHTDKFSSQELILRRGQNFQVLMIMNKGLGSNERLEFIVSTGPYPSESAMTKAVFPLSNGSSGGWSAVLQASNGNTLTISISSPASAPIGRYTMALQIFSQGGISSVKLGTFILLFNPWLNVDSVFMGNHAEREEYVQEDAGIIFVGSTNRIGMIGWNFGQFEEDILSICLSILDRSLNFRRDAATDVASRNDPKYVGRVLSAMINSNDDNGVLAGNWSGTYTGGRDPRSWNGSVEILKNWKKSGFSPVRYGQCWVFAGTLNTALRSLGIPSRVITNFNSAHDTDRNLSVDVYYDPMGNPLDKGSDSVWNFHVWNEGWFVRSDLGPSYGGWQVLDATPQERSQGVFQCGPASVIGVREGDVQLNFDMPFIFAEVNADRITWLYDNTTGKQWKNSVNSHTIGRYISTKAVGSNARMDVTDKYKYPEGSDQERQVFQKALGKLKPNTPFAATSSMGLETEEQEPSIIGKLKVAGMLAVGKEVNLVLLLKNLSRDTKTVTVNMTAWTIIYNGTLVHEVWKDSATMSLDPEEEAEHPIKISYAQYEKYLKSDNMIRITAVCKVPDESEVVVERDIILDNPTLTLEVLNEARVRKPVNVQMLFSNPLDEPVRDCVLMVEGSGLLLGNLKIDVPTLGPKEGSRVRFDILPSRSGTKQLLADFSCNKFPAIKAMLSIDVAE

T2: TG13
T2 construct: also called Factor XIIIa
T2 chain: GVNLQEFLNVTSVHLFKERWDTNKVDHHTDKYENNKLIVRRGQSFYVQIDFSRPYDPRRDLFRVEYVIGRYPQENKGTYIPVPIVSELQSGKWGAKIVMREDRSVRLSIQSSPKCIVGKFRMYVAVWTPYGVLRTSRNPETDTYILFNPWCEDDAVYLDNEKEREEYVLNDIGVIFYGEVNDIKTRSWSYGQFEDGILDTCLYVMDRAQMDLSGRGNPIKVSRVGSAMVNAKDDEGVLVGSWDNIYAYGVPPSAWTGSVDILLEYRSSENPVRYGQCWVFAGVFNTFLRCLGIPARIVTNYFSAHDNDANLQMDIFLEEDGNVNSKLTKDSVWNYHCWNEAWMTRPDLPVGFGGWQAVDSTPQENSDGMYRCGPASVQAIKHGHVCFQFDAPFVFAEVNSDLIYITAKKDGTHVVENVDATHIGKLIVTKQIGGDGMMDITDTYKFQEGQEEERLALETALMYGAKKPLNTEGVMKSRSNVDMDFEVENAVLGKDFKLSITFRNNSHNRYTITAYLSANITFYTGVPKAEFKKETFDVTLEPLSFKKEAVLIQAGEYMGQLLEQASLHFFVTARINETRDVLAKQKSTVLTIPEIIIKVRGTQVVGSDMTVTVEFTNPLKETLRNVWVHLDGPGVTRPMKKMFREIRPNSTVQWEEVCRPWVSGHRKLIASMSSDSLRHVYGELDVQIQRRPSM

T3: human transglutaminase type 2 (TG2) (human, UniProt P21980 1-687)
T3 sequence: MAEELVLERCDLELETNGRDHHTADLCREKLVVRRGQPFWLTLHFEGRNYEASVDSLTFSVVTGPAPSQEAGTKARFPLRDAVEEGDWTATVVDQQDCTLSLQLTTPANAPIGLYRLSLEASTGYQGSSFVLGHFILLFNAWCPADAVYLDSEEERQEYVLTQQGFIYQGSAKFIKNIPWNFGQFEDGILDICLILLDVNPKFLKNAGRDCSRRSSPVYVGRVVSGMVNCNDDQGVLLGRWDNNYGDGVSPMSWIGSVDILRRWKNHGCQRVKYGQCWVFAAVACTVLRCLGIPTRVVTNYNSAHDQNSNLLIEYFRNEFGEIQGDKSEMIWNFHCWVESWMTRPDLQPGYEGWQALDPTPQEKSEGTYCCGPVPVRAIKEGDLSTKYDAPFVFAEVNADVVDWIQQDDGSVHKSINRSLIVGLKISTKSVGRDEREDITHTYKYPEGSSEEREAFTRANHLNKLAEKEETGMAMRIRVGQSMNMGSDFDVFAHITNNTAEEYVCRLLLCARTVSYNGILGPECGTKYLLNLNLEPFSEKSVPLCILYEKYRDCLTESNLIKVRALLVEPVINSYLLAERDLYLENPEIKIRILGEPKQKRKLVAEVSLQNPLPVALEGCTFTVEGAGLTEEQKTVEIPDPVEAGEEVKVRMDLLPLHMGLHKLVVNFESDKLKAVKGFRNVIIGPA


Assays:
TG3 = target: T1, TG3; test: ELISA, purified IgG at 0.1 ug/ml, plates coated with 100 ng of each TG [panel B]
Experimental: (§1) Conditioned medium or purified IgG were tested for reactivity to transglutaminase family members. The ability of each to bind to each transglutaminase (TG1, TG2, TG3, TG5, TG7 and Factor XIIIa; all Zedira) was determined using a plate binding assay. Microtiter plates (Costar, Cambridge, UK) were coated with recombinant TG (Zedira, Darmstadt, Germany) in 50 μl of 0.1 M bicarbonate/carbonate buffer (pH 9.6) overnight at 4° C. Plates were blocked for 2 h at 37° C. with 200 μl PBS containing 3% w/v BSA. Plates were washed three times with PBS containing 0.05% Tween 20 (washing buffer) and 100 μl of diluted conditioned medium (dilution 1:5 to 1:20) or purified anti-TG2 catalytic core mAbs was added. Plates were incubated for a further 1 h at room temperature. The washing step was repeated and anti-mouse gamma chain-horseradish peroxidase (1:5000) in PBS containing 0.05% Tween 20 (v:v) and 1% BSA (w:v) (Sigma, Poole UK) was added for 1 h. […] The reaction was stopped by adding 25 μl of 0.1 M H_2SO_4 and the absorbance at 450 nm was determined.

TG13 = target: T2, TG13; test: as above
Experimental: as §1

[1] = target: T3, human transglutaminase type 2 (TG2); test: cell-based or functional assay

Binder | binding result (TG3) | binding result (TG13) | IC50 of enzymatic inhibition, dansylated lysine incorporation into N,N-dimethylated casein [continued), panel E] [1] [µM]
DC1 murine monoclonal antibody (antibody, V domains shown, Mouse hybridoma IgG; heavy chain amplified with primer MHCG1, kappa light chain; also called mDC001) VH: EVQLVESGGGLVKPGGSLKLSCAASGFTLSTHAMSWVRQTPEKRLEWVATISSGGRSTYYPDSVKGRFTISRDNVKNTLYLQLSSLRSEDTAVYFCARLISTYWGQGTTLTVSS VL: DITMTQSPSSIYASLGERVTITCKASQDINSYLTWFQQKPGKSPKILIYLVNRLVDGVPSRFSGSGSGQDYALTISSLEYEDMGIYYCLQYDDFPYTFGGGTKLEIK | no binding (tested: 0.1 ug/ml) | no binding (tested: 0.1 ug/ml) | –
cDH001 chimeric antibody (murine DH2 variable regions) (antibody, human IgG1, V domains shown) VH: not shown VL: QIVLTQSPAIMSASPGEKVTMTCSASSSVSYMYWYQQKPGSSPRLLIYDTSNLASGVPVRFSGSGSGTSYSLTISRMEAEDAATFYCQQWSSSPLTFGAGTKLELK | – | – | 0.829
